Data taken from patent publication US6469141B1, “D1-like dopamine receptor activity modifying protein” (Medical College of Georgia Research Institute Inc., priority 1998, dated 2002).

Assays:
[1] = target: T1, GSTD1 (C-terminal 81 residues of hD1 receptor) (Homo sapiens, UniProt P21728); assay: S-agarose pull-down assay with GSTD1 fusion protein; assay type: binding; settings: immunoblot with D1 receptor antibodies
T1 construct: C-terminal 81 amino acids of the hD1 receptor (residues 365-446); made in house; host or cells: S-Calcyon: BL21(DE3) E. coli
T1 sequence (P21728 365-446): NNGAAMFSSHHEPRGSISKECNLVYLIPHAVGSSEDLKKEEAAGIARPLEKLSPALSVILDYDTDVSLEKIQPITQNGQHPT
From the text: For pull-down assays, a 550 bp Nco I-Bgl II fragment from pACT-Calcyon was subcloned into pET30a (Novagen, Madison, Wis.) to produce the S-Calcyon fusion protein containing residues 93-217 of the predicted Calcyon protein as well as an N-terminal tag composed of the 15 residue S peptide of ribonuclease S (Richards, F. M., et al., The Enzymes. ed.: Boyer, P. D., Academic Press, N.Y., pp. 647-806 (1971)). The S-β-galactosidase fusion protein was composed of bacterial β-galactosidase protein tagged at its N-terminus with the S peptide. Fusion proteins were induced in BL2I(DE3) E. coli with IPTG, and coupled to S-agarose resin (Novagen, Madison, Wis.) by incubating soluble fractions of bacterial lysates with resin for 1 h at RT Following incubation, unbound proteins were eliminated by washing the resin three times in 50 volumes of 25 mM HEPES (pH 7.4), 50 mM NaCl. Interaction assays were performed with GSTD1 purified as described (Bergson, C., et al., J. Neurosci. 15:7821-36 (1995)) or solubilized lysates of D1 HEK293 cells in 25 mM HEPES (pH 7.4), 50 mM NaCl, 10% glycerol, 1% bovine serum albumin containing 0.5% NP-40. Peptidel 421-435 ([…]) (SEQ ID No. 3) and Peptide2 ([…]) (SEQ ID No. 4) were synthesized using an Applied Biosystems 430A Peptide Synthesizer using the FastMoc procedures and reagents supplied by Perkin-Elmer, Applied Biosystems division. […]

[2] = target: T2, full-length D1 DA receptors (Homo sapiens, UniProt P21728); assay: S-agarose pull-down assay with D1 HEK293 cell lysates; assay type: binding; settings: detergent solubilized D1 HEK293 lysates
T2 construct: expressed in transfected cells; host or cells: D1 HEK293 cell lysate (receptor); BL21(DE3) E. coli (S-Calcyon)
From the text: For pull-down assays, a 550 bp Nco I-Bgl II fragment from pACT-Calcyon was subcloned into pET30a (Novagen, Madison, Wis.) to produce the S-Calcyon fusion protein containing residues 93-217 of the predicted Calcyon protein as well as an N-terminal tag composed of the 15 residue S peptide of ribonuclease S (Richards, F. M., et al., The Enzymes. ed.: Boyer, P. D., Academic Press, N.Y., pp. 647-806 (1971)). The S-β-galactosidase fusion protein was composed of bacterial β-galactosidase protein tagged at its N-terminus with the S peptide. Fusion proteins were induced in BL2I(DE3) E. coli with IPTG, and coupled to S-agarose resin (Novagen, Madison, Wis.) by incubating soluble fractions of bacterial lysates with resin for 1 h at RT Following incubation, unbound proteins were eliminated by washing the resin three times in 50 volumes of 25 mM HEPES (pH 7.4), 50 mM NaCl. […]
A human embryonic kidney (HEK) 293 cell line, designated D1 HEK293, that stably expresses hD1 receptors was used to test the ability of S-Calcyon to interact with full-length D1 DA receptors. […] Proteins retained by the S-tagged target polypeptides were analyzed by immunoblotting with D1 receptor antibodies as described above. […]

[3] = binding of 3H-labeled phospholipid vesicles to resin-bound S-Calcyon; settings: 25 μl S-agarose resin, one hour, room temperature
Description: FIG. 4 is a graph showing that calcyon's cytoplasmic domain binds PIP2. S-Calcyon bound to 25 μl of S-agarose resin, or 25 μl of S-agarose resin only was incubated for one hour at room temperature with phospholipid vesicles containing phosphotidylcholine (PC), phosphotidylethanolamine (PE), or PC, PE, and PIP2. Both types of vesicles were radioactively labeled with equivalent amounts of ^3H-phosphatidylcholine. Following incubation, resins were washed three times with ten volumes of buffer (20 mM hepes, pH 7.4), and amounts of bound phospholipid determined by liquid scintillation counting. Results are reported as percent of input radiolabel precipitated. Bars represent average value obtained in three independent assays with standard error of the mean.
Tests were conducted to determine whether Calcyon can bind PIP2 using the S-Calcyon fusion protein. S-Calcyon contains the predicted cytoplasmic domain of Calcyon (residues 93-217) preceded by an ‘S’ tag (for coupling to S-agarose resin). […] Following incubation, resin was washed three times with ten volumes of buffer (20 mM Hepes, pH 7.4), and amounts of bound phospholipid were determined by liquid scintillation counting. […] Results are reported as percent of input radiolabel precipitated, bars represent the standard error of the mean of each value determined in triplicate. […]

T2 sequence (P21728 whole entry): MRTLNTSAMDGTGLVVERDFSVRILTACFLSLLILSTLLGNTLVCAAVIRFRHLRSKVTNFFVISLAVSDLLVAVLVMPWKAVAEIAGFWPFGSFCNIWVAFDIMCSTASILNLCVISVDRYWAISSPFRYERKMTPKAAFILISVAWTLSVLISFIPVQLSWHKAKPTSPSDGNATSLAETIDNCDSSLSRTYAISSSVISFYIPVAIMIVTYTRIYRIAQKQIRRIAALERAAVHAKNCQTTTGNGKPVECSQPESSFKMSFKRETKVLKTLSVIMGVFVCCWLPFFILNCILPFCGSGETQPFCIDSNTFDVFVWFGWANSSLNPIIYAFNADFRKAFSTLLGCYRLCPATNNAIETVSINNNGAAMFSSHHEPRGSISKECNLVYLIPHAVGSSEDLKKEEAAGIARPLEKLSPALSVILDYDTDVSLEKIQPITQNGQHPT

pull-down of full-length D1 receptor by resin-immobilized S-tagged protein [2]: Bands of similar size were also present | precipitation of PIP2 containing vesicles vs vesicles of PC and PE only [3]: more than five times more effectively
B1: S-Calcyon: fusion protein containing residues 93-217 of Calcyon with N-terminal 15 residue S peptide tag (protein)
chain: KETAAAKFERQHMDSMALLGCVLIMYKAIWYDQFTCPDGFLLRHKICTPLTLEMYYTEMDPERHRSILAAIGAYPLSRKHGTETPAAWGDGYRAAKEERKGPTQAGAAAAATEPPGKPSAKAEKEAARKAAGSAAPPPAQ
pull-down of GSTD1 by resin-immobilized S-tagged protein [1]: A D1 antibody reactive band of similar size was present
